Reference: patent US20110311550A1

Legend:
Experiment in all cases: ELISA, lectin-captured E1E2 lysate, Ab 1 ug/ml
[1] = biological target: E1E2 complex (H77) with E1 mutation Y276A (HCV genotype 1a, isolate H77) (UniProt P27958)
[2] = biological target: E1E2 complex (H77) with E1 mutation N196A/N234A (HCV genotype 1a, isolate H77) (UniProt P27958)
[3] = biological target: E1E2 complex (H77) with E1 mutation W326A (HCV genotype 1a, isolate H77) (UniProt P27958)
[4] = biological target: E1E2 complex (H77) with E1 mutation H316A (HCV genotype 1a, isolate H77) (UniProt P27958)
[5] = biological target: E1E2 complex (H77) with E1 mutation V246A (HCV genotype 1a, isolate H77) (UniProt P27958)
[6] = biological target: E1E2 complex (H77) with E1 mutation Y201A (HCV genotype 1a, isolate H77) (UniProt P27958)
[7] = biological target: E1E2 complex (H77) with E1 mutation P228A (HCV genotype 1a, isolate H77) (UniProt P27958)
[8] = biological target: E1E2 complex (H77) with E1 mutation N325A (HCV genotype 1a, isolate H77) (UniProt P27958)
[9] = biological target: E1E2 complex (H77) with E1 mutation S307A (HCV genotype 1a, isolate H77) (UniProt P27958)
[10] = biological target: E1E2 complex (H77) with E1 mutation N209A (HCV genotype 1a, isolate H77) (UniProt P27958)
[11] = biological target: E1E2 complex (H77) with E2 mutation G634A (HCV genotype 1a, isolate H77) (UniProt P27958)
[12] = biological target: E1E2 complex (H77) with E1 mutation N196A/N325A (HCV genotype 1a, isolate H77) (UniProt P27958)
[13] = biological target: E1E2 complex (H77) with E1 mutation Q289A (HCV genotype 1a, isolate H77) (UniProt P27958)
[14] = biological target: E1E2 complex (H77) with E2 mutation L427A (HCV genotype 1a, isolate H77) (UniProt P27958)
[15] = biological target: E1E2 complex (H77) with E1 mutation N234A (HCV genotype 1a, isolate H77) (UniProt P27958)
[16] = biological target: E1E2 complex (H77) with E2 mutation N428A (HCV genotype 1a, isolate H77) (UniProt P27958)
[17] = biological target: E1E2 complex (H77) with E2 mutation N623A (HCV genotype 1a, isolate H77) (UniProt P27958)
[18] = biological target: E1E2 complex (H77) with E1 mutation T314A (HCV genotype 1a, isolate H77) (UniProt P27958)
[19] = biological target: E1E2 complex (H77) with E2 mutation G436A (HCV genotype 1a, isolate H77) (UniProt P27958)
[20] = biological target: E1E2 complex (H77) with E1 mutation D321A (HCV genotype 1a, isolate H77) (UniProt P27958)
[21] = biological target: E1E2 complex (H77) with E2 mutation H638A (HCV genotype 1a, isolate H77) (UniProt P27958)
[22] = biological target: E1E2 complex (H77) with E1 mutation H222A (HCV genotype 1a, isolate H77) (UniProt P27958)
[23] = biological target: E1E2 complex (H77) with E1 mutation R259A (HCV genotype 1a, isolate H77) (UniProt P27958)
[24] = biological target: E1E2 complex (H77) with E1 mutation W239A (HCV genotype 1a, isolate H77) (UniProt P27958)
[25] = biological target: E1E2 complex (H77) with E2 mutation G635A (HCV genotype 1a, isolate H77) (UniProt P27958)
[26] = biological target: E1E2 complex (H77) with E1 mutation W320A (HCV genotype 1a, isolate H77) (UniProt P27958)
[27] = biological target: E1E2 complex (H77) with E1 mutation N205A (HCV genotype 1a, isolate H77) (UniProt P27958)
[28] = biological target: E1E2 complex (H77) with E2 mutation L441A (HCV genotype 1a, isolate H77) (UniProt P27958)
[29] = biological target: E1E2 complex (H77) with E1 mutation D206A (HCV genotype 1a, isolate H77) (UniProt P27958)

mouse anti-E1 MAb A4 (antibody)
Binding relative to wt (%) [1]: 82% | Binding relative to wt (%) [2]: 71% | Binding relative to wt (%) [3]: 72% | Binding relative to wt (%) [4]: 95% | Binding relative to wt (%) [5]: 96% | Binding relative to wt (%) [6]: 5% | Binding relative to wt (%) [7]: 171% | Binding relative to wt (%) [8]: 83% | Binding relative to wt (%) [9]: 157% | Binding relative to wt (%) [10]: 119% | Binding relative to wt (%) [11]: 112% | Binding relative to wt (%) [12]: 64% | Binding relative to wt (%) [13]: 49% | Binding relative to wt (%) [14]: 102% | Binding relative to wt (%) [15]: 105% | Binding relative to wt (%) [16]: 127% | Binding relative to wt (%) [17]: 116% | Binding relative to wt (%) [18]: 99% | Binding relative to wt (%) [19]: 96% | Binding relative to wt (%) [20]: 91% | Binding relative to wt (%) [21]: 104% | Binding relative to wt (%) [22]: 132% | Binding relative to wt (%) [23]: 97% | Binding relative to wt (%) [24]: 103% | Binding relative to wt (%) [25]: 109% | Binding relative to wt (%) [26]: 105% | Binding relative to wt (%) [27]: 96% | Binding relative to wt (%) [28]: 111% | Binding relative to wt (%) [29]: 81%
